Measured values published in paper PMC2942778 (Biochemistry, 2010).

Molecular target: the molecule itself
Test: AUC

B1: BlaI gene repressor (blaI gene product) of plasmid pI258 from S. aureus NRS128 (natural protein)
chain: MANKQVEISMAEWDVMNIIWGKKSVSANEIVVEIQKYKEVSDKTIRTLITRLYKKEIIKRYKSENIYFYSSNIKEDDIKMKTAKTFLNKLYGGDMKSLVLNFAKNEELNNKEIEELRDILNDISKK
Kd: 1610 ± 20 nM | stoichiometry N: 2
